Results from a protein production outcome set (Wang et al. 2014).

experiment: label from the status in PepcDB records
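Further: failed if final PepcDB status was selected cloned or expressed and not failed if soluble or beyond.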

| Sequence | protein production |
| --- | --- |
| MDHTSPTYMLANLTHLHSEQLLQGLNLLRQHHELCDIILRVGDVKIHAHKVVLASVSPYFKAMFTGNLSEKENSEVEFQCIDETALQAIVEYAYTGTVFISQDTVESLLPAANLLQIKLVLKECCAFLESQLDPGNCIGISRFAETYGCRDLYLAATKYICQNFEAVCQTEEFFELTHADLDEIVSNDCLNVATEETVFYALESWIKYDVQERQKYLAQLLNSVRLPLLSVKFLTRLYEANHLIRDDRTCKHLLNEALKYHFMPEHRLSHQTVLMTRPRCAPKVLCAVGGKSGLFACLDSVEMYFPQNDSWIGLAPLNIPRYEFGICVLDQKVYVIGGIATNVRPGVTIRKHENSVECWNPDTNTWTSLERMNESRSTLGVVVLAGELYALGGYDGQSYLQSVEKYIPKIRKWQPVAPMTTTRSCFAAAVLDGMIYAIGGYGPAHMNSVERYDPSKDSWEMVASMADKRIHFGVGVMLGFIFVVGGHNGVSHLSSIERYDPHQNQWTVCRPMKEPRTGVGAAVIDNYLYVVGGHSGSSYLNTVQKYDPISDTWLDSAGMIYCRCNFGLTAL | failed |
| MDHVQISVQKLDEILKLNGSALLNRVTLDIHQQLKSHCTCVVEVAHLQHAAHTISFASGGEISDNLSYHLSGTPCEKVAKDIGEHIFYQDQVYKRFPEDQMFQDDGVQAYLGLPLKTQSGEVLGILLSTFTRSIHAKEAQDVLELHRFYANVIIHSLREKWVSERSDKLLNQLSYEVSHDNLTGLLNRSCLADTLETLTQQATRPFNLAYLDIDNFKSINDINGNYIGDQIIKFTANAIQQSLSSPNNAFRVAGDEFAFITYDEDPVAVCQEVLDKIEAGYSDKSNRISFTVSIGIARAPVHMLNSDELILNASLALKDCKKHRDTRIQHYDTHLSALYHRQTQLIEAMRIQLSTSITESHELYVVLQPIVDVNNDRWDYFEILARWNSSVYGNISPAEFIEAAEQSGLIIELGERIIELACIAKQELEAHLGYTVKLSINCSAHELVDSNRYINHLTTLLERYGHDASDFVIELTETVLLSQSGREQMVLNSLRYLGFKVALDDFGTGYSSLNYIHNYPIDSIKIDATFVRNMLSNKTSEQVVYLIAQLAQLLDVDLIAEGVEDDRALNKLIDMGCHYIQGYFYSRPHNVDELVHMINDRQVKRA | failed |
| MDIISSYSPIHVVGGGLAGSEAAWQIASAGVPVILHEMRGVRGTDAHKTDGLAELVCSNSFRSDDATSNAVGVIHAEMRMAGSLIMAAADRHQVPAGGALAVDRDGFSDAVTRAIHDHPLITVMREEITGLPPSDWDLAIVATGPLTAPSLAAAIQAETGEDSLAFFDAIAPIVYRESIDMDICWYQSRYDKVGPGGTGKDYINCPMDEAQYNAFVNALIAGDTVGFKEWEGTPYFDGCLPIEVMAERGRETLRHGPMKPMGLTNAHNPTVKAYAVVQLRQDNALGTLYNMVGFQTKLKYGAQAEIFRMIPGLENAEFARLGGLHRNTYINSPTLLDPSLTLKSRPGLRFAGQITGCEGYVESASVGLMAGRFAAAERKGEAISLPPATTALGSLLGHITGGHIVTDEEPGKRSFQPMNINFGLFPELEPGSIVKPEGVKRFRGKDKTIMKRQLIARRALADCAAWLGQTRTLAERA | failed |
| MDILDLNKAQAVQQNEQEVEDKERESKEPVVLEDLSALAWLELEEFSRLSGLPKERILELVNLGKIKSKISSNKLLIDASSGTNALIKKVENSLISMDMNGRSLEPVFVEKTINTILNLHDKVIGAKDETISAFKNENMFLKDALISMQEVYEEDKKTIDLLRDELNQAREEIEFMKRKYRLMWGKVADMSSVNKK | failed |
| MDINMFILYFFIYSVLGWAWEEVFCSISEKKLVYRGFLYGPYCPIYGFGVTTVLMMILPFQNNLWALFIFSMIICTVIEYVTATILEALFHTTWWDYHNWPLNVKGRICLPISIFWGFACIIVVRFLHPLVTEFADWVLSWGGWIIPALIVVLMLIDTIKSVTSMLSFQKVLAEFNEKLTAQANELKASVKERAKEFEEGLLKKQENVDMKIAEMEAKRKQDKELAASMRKLKFNERRMLKSFPKMKVKRAAPFKNFNKSILRVDKQKRK | failed |
| MDINNKARIHWACRRGMRELDISIMPFFEHEYDSLSDDEKRIFIRLLECDDPDLFNWLMNHGKPADAELEMMVRLIQTRNRERGPVAI | not failed |
| MDINYERPDPYYLLNKIDKEEKNKNRGKLKIFFGYAAGVGKTYAMLRAAHYMKELGKDIVIGYIEPHARMDTMSLTKGLPQIPVKNIDYKGVILREFDVDKALLRKPEIILVDELAHTNAKSQRNKKRWKDIEELLDAGIDVYTTLNVQHIESLNDIVANITHVSVRETIPDKVFDDADKVELIDIEPDELLKRFTDGKIYRKEQVKRAFNNFFTKNNLYALREIALRRTADRVNFEIEIARLSKGQITVMATSDQILACIGTSPSSARIIRTAARMAESYHSKWIALYVDTGRSLGKADKETLNANFNLVELLGGELVTVHGENVADQIIRYAELRNTTKIVIGKNHKRTGTLLHFYAKDVVDKLMDSNSYIDVYMIPNSSYYRDHKNSILSKISIQHKGSVKDVLKAIIIMAITTDIAELFSYMGFKDVNVIMIFILGVIIVYMATKGQIMGIISSIAAVLVFNYRFTEPKNSFIVYDKSYLVTFPIMMIVAFIIGSLTNKVQKEAQDSNMREKRTQTLYIVSGKLLSAVGTSEVVSIGIKYISRLVNRNVICYLADTSNKLSTPFVYKKDKGAKEEIIMSKDENAAAYWTFLNGKESGCGTSTFYRAKGYYIPIKIKNKVLGVIGVSCPSGPLRPQKKAVVDTVTGQIAIALDREILSKEQEKSKVEIERERLRSNLLRSISHDLRSPLAGIKGAASTILENGELIDEKRKQELINGIYEDTEWLIRLIENLLSMTKFDEGNTKIKKDVELVEEVVSEAVQRSSKYFKNHKIKVSVPEDVIMVSMDGSLIEQVIINLLDNASKFSPKGSTIEIKVYEKKKDVVFEIIDEGQGISEDILPNIFDRFFTNGSKISDSRRGVGLGLAICKSIVEAHGGKIEAVNKGSGGAIFKFNIPKEL | failed |
| MDISGRDVETRLTLAREFMSGVDELPTVPDIVLRIAGKLNDPDVAIDEVADLLLQDQVLTARVVHLANSPLYSAARPISSIRDAVIYLGLDLLREAIFTCAIVDLFKTGKGPLNRSTLWAHSLGVARIAKLIAERTGFLNPVNVYVAGLLHDVGEVFINFFRGKEFSQVVTLVDEEKITFGQAEERLFGTSHCEVGFALAKRWSLNEFICDTILYHHDIEAVPYKQAAIVAMVAFADEYCTLRRLGFEGHKPVDSVRTLLENHPSWGVIRRSLGGSDFDEKLIVAELDSSIVEIRAAVDELFLL | failed |
| MDISILQAVLIGLWTAFCFSGMLLGLYTNRCIVLSLGVGVILGDIQTALAVGAISELAYMGFGVGAGGTVPPNPIGPGIFGTLMAITTAGTKGKITPEAALALSTPIAVGIQFLQTATYTAFAGAPETAKKALQAGNFRGFKIAANGTIWAFAGLGFGLGVLGALSTQTLTDLFALIPPVLLNGLTLAGKMLPAIGFAMILSVMAKKELIPYILLGYVLAVYFGLPVLTPTANGDGVLTSVATNSVLGVPTIGVAIIATIFALLDIFRKPAAPTKETKTEGDNQDDWI | failed |
| MDITEKLRLITRNAEEVVTEEELRQLIETKEKPRAYVGYEPSGEIHLGHMMTVQKLMDLQEAGFEIIVLLADIHAYLNEKGTFEEIAEVADYNKKVFIALGLDESRAKFVLGSEYQLSRDYVLDVLKMARITTLNRARRSMDEVSRRKEDPMVSQMIYPLMQALDIAHLGVDLAVGGIDQRKIHMLARENLPRLGYSSPVCLHTPILVGLDGQKMSSSKGNYISVRDPPEEVERKIRKAYCPAGVVEENPILDIAKYHILPRFGKIVVERDAKFGGDVEYASFEELAEDFKSGQLHPLDLKIAVAKYLNMLLEDARKRLGVSV | not failed |
| MDIVTNKIVVEKYNFETTMEENQPFENKIELEVHEVEPVDGNVELMAKGKIFKITIPFLLVLENFRIDGRISRIIQLKDFFGQFSDLEAKDVEGLSNPLIDYIKRLTYDVTEIAFDEPGVSLDF | failed |
| MDIYIGFSLQIYVIQVRRKPTENLQKTYKKSGNGILFICLIANCEICGTNLLTSELYIPTFTSKTKVMKKRVSAVVIVLVCLGGVACIKTLSTSSVGLPQLAFDNIEALASGESSAYRCYGIGDVDCHGDKVDKMYSGYSLK | failed |
| MDKDYYKIMGVSQDASEKDIKMAYRKLARKYHPDISKEPDAEERFKEMAEAYEVLKDPKKRSEYDQYLKYKEFNPQSDGFTGRRTQEQPFQEFHFDSDFFETLFGHSRYQQQPMTGQNYHGKITISLEEAYHGAVKNLQVPVEQGTETKIQTLKVKIPAGVKSGQQIRLAGQGGSGSGGGARGDLYLTVEVMKHPIFDVMENDIYLTLPVTPWEAALGATVVIPTLAGKIDLKIPPGSQGGQKLRIKNRGLPGSPPGNQYVLLKIITPPAQTEEAKALYKKMAEVMPYNPRKTMGV | failed |
